Measured values as given in the supplement of paper PMC10724198.
± gives the standard deviation of the averaged measurements.

What was measured:
Saccharomyces cerevisiae [1] = assay: protein stability index of tFT-peptide fusion (C-terminal peptide) (PSI (0-1 scale)); higher = more stable (slower turnover)
Experimental: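 MPS profiling in S. cerevisiae of the tFT-X12 degron library: putative degron peptides plus stable controls, 12 aa, fused to the C-terminus of a sfGFP-mCherry timer. Cells are FACS-sorted into 8 mCherry/sfGFP bins and deep-sequenced. PSI runs from 0 (unstable) to 1 (stable). Backgrounds are wild type, das1Δ and doa10Δ at 30 °C, and wild type, das1Δ, cdc34-1 and cdc53-1 at 37 °C; 2-3 technical replicates each.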

Saccharomyces cerevisiae [2] = assay: protein stability index of tFT-peptide fusion in deletion strain of DOA10 (PSI (0-1 scale)); higher = more stable (slower turnover)
Experimental: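 MPS profiling in S. cerevisiae of two library types built from selected 12-aa C-degron peptides (IN1, IN2, LN1, LN3, VN2, R1-R5, W1-W3, Atg1 and Rpa12 C-termini): saturation mutagenesis libraries and C-terminal +1 capping libraries (13 aa). Each peptide is fused to the C-terminus of a sfGFP-mCherry timer, after a GGGS linker. Cells are FACS-sorted into 8 mCherry/sfGFP bins and sequenced. PSI runs from 0 (unstable) to 1 (stable), measured once in wild type and in the das1Δ or doa10Δ background.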

Saccharomyces cerevisiae [3] = assay: protein stability index of tFT-peptide fusion in wild type (PSI (0-1 scale)); higher = more stable (slower turnover); details: genetic background: wild type
Saccharomyces cerevisiae [4] = assay: protein stability index of tFT-peptide fusion (C-terminal peptide) (PSI (0-1 scale)); higher = more stable (slower turnover); details: genetic background: wild type; temperature: 30 C
[5] = genetic background: cdc34-1, temperature: 37 C
[6] = genetic background: cdc53-1, temperature: 37 C
[7] = genetic background: das1 deletion, temperature: 30 C
[8] = genetic background: das1 deletion, temperature: 37 C
[9] = genetic background: doa10 deletion, temperature: 30 C
[10] = genetic background: wild type, temperature: 30 C
[11] = genetic background: wild type, temperature: 37 C
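Throughout, for protein stability index of tFT-peptide fusion (C-terminal peptide): PSI is a weighted mean of sequencing reads over stability bins, variants kept only with over 10 reads, mCherry proximal and sfGFP distal, peptide attached via GGGS linker.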
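Throughout, for protein stability index of tFT-peptide fusion in deletion strain of DOA10: PSI per variant is the weighted mean of its sequencing read distribution over the sorted stability bins, counting only variants with over 10 reads summed across bins.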
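Throughout, for protein stability index of tFT-peptide fusion in wild type: PSI derived as read-weighted mean over the 8 sorting bins, only variants exceeding 10 total reads kept, mCherry placed adjacent to the peptide and sfGFP distal.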

| Sequence | protein stability index (Saccharomyces cerevisiae [2]) | protein stability index (Saccharomyces cerevisiae [3]) | also measured |
| --- | --- | --- | --- |
| AITLPMCPLLLR | 0.649 | 0.207 | protein stability index (Saccharomyces cerevisiae [1]; [5]): 0.0636 ± 0.0091; protein stability index (Saccharomyces cerevisiae [1]; [6]): 0.047 ± 0.0088; protein stability index (Saccharomyces cerevisiae [1]; [7]): 0.165 ± 0.017; protein stability index (Saccharomyces cerevisiae [1]; [8]): 0.204 ± 0.014; protein stability index (Saccharomyces cerevisiae [1]; [9]): 0.6226 ± 0.0028; protein stability index (Saccharomyces cerevisiae [1]; [10]): 0.16 ± 0.027; protein stability index (Saccharomyces cerevisiae [1]; [11]): 0.157 ± 0.0086; protein stability index (Saccharomyces cerevisiae [4]): 0.256 ± 0.018 |
| CLVSLPILLFFR | 0.586 | 0.0566 | protein stability index (Saccharomyces cerevisiae [1]; [5]): 0.0435 ± 0.013; protein stability index (Saccharomyces cerevisiae [1]; [6]): 0.0381 ± 0.0045; protein stability index (Saccharomyces cerevisiae [1]; [7]): 0.0501 ± 0.019; protein stability index (Saccharomyces cerevisiae [1]; [8]): 0.0652 ± 0.014; protein stability index (Saccharomyces cerevisiae [1]; [9]): 0.545 ± 0.023; protein stability index (Saccharomyces cerevisiae [1]; [10]): 0.0298 ± 0.0067; protein stability index (Saccharomyces cerevisiae [1]; [11]): 0.0556 ± 0.015; protein stability index (Saccharomyces cerevisiae [4]): 0.0658 ± 0.021 |
| GLYMCRVGCWFR | 0.638 | 0.291 | – |
| GLYMCSVGCKFR | 0.654 | 0.619 | – |
| GLYMCSVGCVFR | 0.627 | 0.561 | – |
| GLYMCSVGCWER | 0.656 | 0.632 | – |
| GLYMCSVGCWFRH | 0.616 | 0.271 | – |
| GLYMCSVGCWFRL | 0.624 | 0.114 | – |
| GLYMCSVGCWTR | 0.601 | 0.555 | – |
| GLYMCSVGLWFR | 0.534 | 0.184 | – |
| GLYMCSVMCWFR | 0.383 | 0.263 | – |
| GLYMCSVNCWFR | 0.566 | 0.487 | – |
| GLYMCSVQCWFR | 0.416 | 0.354 | – |
| GLYMCVVGCWFR | 0.354 | 0.217 | – |
| GLYMCWVGCWFR | 0.387 | 0.182 | – |
| GLYMFSVGCWFR | 0.524 | 0.234 | – |
| GLYMNSVGCWFR | 0.704 | 0.351 | – |
| GVTRLDAIYFRI | 0.69 | 0.229 | – |
| KITLPMCPLLLR | 0.653 | 0.253 | – |
| MLYMCSVGCWFR | 0.604 | 0.328 | – |
| NLYMCSVGCWFR | 0.657 | 0.414 | – |
| PLYMCSVGCWFR | 0.643 | 0.462 | – |
| RALRVLLPLYFR | 0.669 | 0.353 | – |

| Sequence | protein stability index (Saccharomyces cerevisiae [2]) | protein stability index (Saccharomyces cerevisiae [3]) | also measured |
| --- | --- | --- | --- |
| RLLRVLLPLYFR | 0.673 | 0.407 | – |
| RLYMCSVGCWFR | 0.644 | 0.382 | – |
| RQTRLDAIYFRI | 0.703 | 0.505 | – |
| RSKRVLLPLYFR | 0.675 | 0.362 | – |
| RSLKVLLPLYFR | 0.666 | 0.27 | – |
| RSLMVLLPLYFR | 0.637 | 0.34 | – |
| RSLRFLLPLYFR | 0.632 | 0.322 | – |
| RSLRLLLPLYFR | 0.656 | 0.289 | – |
| RSLRNLLPLYFR | 0.687 | 0.465 | – |
| RSLRSLLPLYFR | 0.702 | 0.469 | – |
| RSLRVLAPLYFR | 0.687 | 0.352 | – |
| RSLRVLLCLYFR | 0.471 | 0.306 | – |
| RSLRVLLILYFR | 0.38 | 0.23 | – |
| RSLRVLLMLYFR | 0.468 | 0.218 | – |
| RSLRVLLPLHFR | 0.714 | 0.517 | – |
| RSLRVLLPLSFR | 0.673 | 0.401 | – |
| RSLRVLLPLYFE | 0.64 | 0.524 | – |
| RSLRVLLPLYFF | 0.502 | 0.364 | – |
| RSLRVLLPLYFN | 0.165 | 0.107 | – |
| RSLRVLLPLYFRG | 0.694 | 0.324 | – |
| RSLRVLLPLYTR | 0.648 | 0.547 | – |
| RSLRVLVPLYFR | 0.657 | 0.218 | – |
| RSLRVMLPLYFR | 0.625 | 0.217 | – |

| Sequence | protein stability index (Saccharomyces cerevisiae [2]) | protein stability index (Saccharomyces cerevisiae [3]) | also measured |
| --- | --- | --- | --- |
| RSLWVLLPLYFR | 0.605 | 0.284 | – |
| RSMRVLLPLYFR | 0.653 | 0.257 | – |
| RSTRLDAIYFRI | 0.678 | 0.53 | – |
| RSWRVLLPLYFR | 0.692 | 0.297 | – |
| RVMRLDAIYFRI | 0.656 | 0.302 | – |
| RVTILDAIYFRI | 0.663 | 0.545 | – |
| RVTKLDAIYFRI | 0.667 | 0.483 | – |
| RVTRLDAIGFRI | 0.696 | 0.69 | – |
| RVTRLDAIRFRI | 0.652 | 0.616 | – |
| RVTRLDAIYFDI | 0.734 | 0.7 | – |
| RVTRLDAIYFRIH | 0.143 | 0.087 | – |
| RVTRLDAIYFRIY | 0.242 | 0.123 | – |
| RVTRLDAIYMRI | 0.71 | 0.382 | – |
| RVTRLDAIYWRI | 0.684 | 0.385 | – |
| RVTRLDEIYFRI | 0.731 | 0.685 | – |
| RVTRLDYIYFRI | 0.538 | 0.179 | – |
| RVTRLLAIYFRI | 0.287 | 0.155 | – |
| RVTRLRAIYFRI | 0.314 | 0.159 | – |
| RVTRQDAIYFRI | 0.698 | 0.553 | – |
| RVTTLDAIYFRI | 0.661 | 0.524 | – |
| RVTWLDAIYFRI | 0.656 | 0.323 | – |
| RVWRLDAIYFRI | 0.543 | 0.246 | – |
